# Measurements reported in patent publication US20150344570A1 (published 2015).
# T1: FcγRIIb (human, UniProt P31994 43-217)
# T1 construct: extracellular domain; also called FcgRIIb; 2b
# T1 sequence (looked up): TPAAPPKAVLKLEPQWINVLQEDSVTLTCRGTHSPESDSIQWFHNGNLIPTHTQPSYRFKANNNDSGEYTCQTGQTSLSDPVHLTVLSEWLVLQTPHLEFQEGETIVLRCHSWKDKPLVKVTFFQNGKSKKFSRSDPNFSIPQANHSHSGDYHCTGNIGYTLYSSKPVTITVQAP
# B1: GpH7-A5/GpH7-B3 variant L328_14T/GpL16-k0 (antibody, human IgG1, kappa)
# heavy 1: not shown
# heavy 2: not shown
# light: DIVMTQSPLSLPVTPGEPASISCQASESLVHSNRNTYLHWYLQKPGQSPQLLIYKVSNRFSGVPDRFSGSGSGTDFTLKISRVEAEDVGVYYCSQNTHVPPTFGQGTKVEIERTVAAPSVFIFPPSDEQLKSGTASVVCLLNNFYPREAKVQWKVDNALQSGNSQESVTEQDSKDSTYSLSSTLTLSKADYEKHKVYACEVTHQGLSSPVTKSFNRGEC
# notes: mutation in the GpH7-B3 chain only; also called He Ab
# B2: GpH7-A5/GpH7-B3 variant T335_18N/GpL16-k0 (antibody, human IgG1, kappa)
# heavy 1: not shown
# heavy 2: not shown
# light: B1 light
# notes: as for B1
# B3: GpH7-A5/GpH7-B3 variant P331_03V/GpL16-k0 (antibody, human IgG1, kappa)
# heavy 1: not shown
# heavy 2: not shown
# light: B1 light
# notes: as for B1
# B4: GpH7-A5/GpH7-B3 variant N325_06M/GpL16-k0 (antibody, human IgG1, kappa)
# heavy 1: not shown
# heavy 2: not shown
# light: B1 light
# notes: as for B1
# B5: GpH7-A5/GpH7-B3 variant L328_06M/GpL16-k0 (antibody, human IgG1, kappa)
# heavy 1: not shown
# heavy 2: not shown
# light: B1 light
# notes: as for B1
# B6: GpH7-A5/GpH7-B3 variant L328_15Y/GpL16-k0 (antibody, human IgG1, kappa)
# heavy 1: not shown
# heavy 2: not shown
# light: B1 light
# notes: as for B1
# B7: GpH7-A5/GpH7-B3 variant L328_20W/GpL16-k0 (antibody, human IgG1, kappa)
# heavy 1: not shown
# heavy 2: not shown
# light: B1 light
# notes: as for B1
# B8: GpH7-A5/GpH7-B3 variant P331_04F/GpL16-k0 (antibody, human IgG1, kappa)
# heavy 1: not shown
# heavy 2: not shown
# light: B1 light
# notes: as for B1
# B9: GpH7-A5/GpH7-B3 variant P331_10E/GpL16-k0 (antibody, human IgG1, kappa)
# heavy 1: not shown
# heavy 2: not shown
# light: B1 light
# notes: as for B1
# B10: GpH7-A5/GpH7-B3 variant L328_09D/GpL16-k0 (antibody, human IgG1, kappa)
# heavy 1: not shown
# heavy 2: not shown
# light: B1 light
# notes: as for B1
# B11: GpH7-A5/GpH7-B3 variant N325_04F/GpL16-k0 (antibody, human IgG1, kappa)
# heavy 1: not shown
# heavy 2: not shown
# light: B1 light
# notes: as for B1
# B12: GpH7-A5/GpH7-B3 variant N325_03V/GpL16-k0 (antibody, human IgG1, kappa)
# heavy 1: not shown
# heavy 2: not shown
# light: B1 light
# notes: as for B1
# B13: GpH7-A5/GpH7-B3 variant P331_20W/GpL16-k0 (antibody, human IgG1, kappa)
# heavy 1: not shown
# heavy 2: not shown
# light: B1 light
# notes: as for B1
# B14: GpH7-A5/GpH7-B3 variant P331_16H/GpL16-k0 (antibody, human IgG1, kappa)
# heavy 1: not shown
# heavy 2: not shown
# light: B1 light
# notes: as for B1
# B15: GpH7-A5/GpH7-B3 variant S337_08L/GpL16-k0 (antibody, human IgG1, kappa)
# heavy 1: not shown
# heavy 2: not shown
# light: B1 light
# notes: as for B1
# B16: GpH7-A5/GpH7-B3 variant L328_07I/GpL16-k0 (antibody, human IgG1, kappa)
# heavy 1: not shown
# heavy 2: not shown
# light: B1 light
# notes: as for B1
# B17: GpH7-A5/GpH7-B3 variant N325_13S/GpL16-k0 (antibody, human IgG1, kappa)
# heavy 1: not shown
# heavy 2: not shown
# light: B1 light
# notes: as for B1
# B18: GpH7-A5/GpH7-B3 variant L328_10E/GpL16-k0 (antibody, human IgG1, kappa)
# heavy 1: not shown
# heavy 2: not shown
# light: B1 light
# notes: as for B1
# B19: GpH7-A5/GpH7-B3 variant N325_09D/GpL16-k0 (antibody, human IgG1, kappa)
# heavy 1: not shown
# heavy 2: not shown
# light: B1 light
# notes: as for B1
# B20: GpH7-A5/GpH7-B3 variant T335_04F/GpL16-k0 (antibody, human IgG1, kappa)
# heavy 1: not shown
# heavy 2: not shown
# light: B1 light
# notes: as for B1
# B21: GpH7-A5/GpH7-B3 variant L328_13S/GpL16-k0 (antibody, human IgG1, kappa)
# heavy 1: not shown
# heavy 2: not shown
# light: B1 light
# notes: as for B1
# B22: GpH7-A5/GpH7-B3 variant N325_08L/GpL16-k0 (antibody, human IgG1, kappa)
# heavy 1: not shown
# heavy 2: not shown
# light: B1 light
# notes: as for B1
# Molecular target: T2, FcγRIIIa (human, UniProt P08637 17-208)
# T2 construct: extracellular domain; also called FcgRIIIa; 3a
# T2 sequence (P08637 17-208): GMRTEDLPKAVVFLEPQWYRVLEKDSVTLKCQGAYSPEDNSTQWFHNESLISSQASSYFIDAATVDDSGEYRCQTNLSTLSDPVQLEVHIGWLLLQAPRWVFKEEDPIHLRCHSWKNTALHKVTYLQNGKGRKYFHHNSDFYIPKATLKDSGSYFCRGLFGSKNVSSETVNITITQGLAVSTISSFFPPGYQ
# Experiment: SPR (Biacore), relative binding
row,He/Con_3a,Binder
1,75.3 % of GpH7-A5/GpH7-B3/GpL16-k0,B1
2,98.8 % of GpH7-A5/GpH7-B3/GpL16-k0,B2
3,73.2 % of GpH7-A5/GpH7-B3/GpL16-k0,B3
4,31.4 % of GpH7-A5/GpH7-B3/GpL16-k0,B4
5,78.6 % of GpH7-A5/GpH7-B3/GpL16-k0,B5
6,68.3 % of GpH7-A5/GpH7-B3/GpL16-k0,B6
7,37.4 % of GpH7-A5/GpH7-B3/GpL16-k0,B7
8,77.3 % of GpH7-A5/GpH7-B3/GpL16-k0,B8
9,75.1 % of GpH7-A5/GpH7-B3/GpL16-k0,B9
10,47.8 % of GpH7-A5/GpH7-B3/GpL16-k0,B10
11,20.7 % of GpH7-A5/GpH7-B3/GpL16-k0,B11
12,30.3 % of GpH7-A5/GpH7-B3/GpL16-k0,B12
13,78.6 % of GpH7-A5/GpH7-B3/GpL16-k0,B13
14,80.2 % of GpH7-A5/GpH7-B3/GpL16-k0,B14
15,96.9 % of GpH7-A5/GpH7-B3/GpL16-k0,B15
16,84 % of GpH7-A5/GpH7-B3/GpL16-k0,B16
17,65.1 % of GpH7-A5/GpH7-B3/GpL16-k0,B17
18,53.4 % of GpH7-A5/GpH7-B3/GpL16-k0,B18
19,48 % of GpH7-A5/GpH7-B3/GpL16-k0,B19
20,96 % of GpH7-A5/GpH7-B3/GpL16-k0,B20
21,71.7 % of GpH7-A5/GpH7-B3/GpL16-k0,B21
22,33.3 % of GpH7-A5/GpH7-B3/GpL16-k0,B22

# Molecular target: T1, FcγRIIb
# Experiment: SPR (Biacore), relative binding
row,He/Con_2b,Binder
1,141 % of GpH7-A5/GpH7-B3/GpL16-k0,B1
2,102 % of GpH7-A5/GpH7-B3/GpL16-k0,B2
3,119 % of GpH7-A5/GpH7-B3/GpL16-k0,B3
4,217 % of GpH7-A5/GpH7-B3/GpL16-k0,B4
5,142 % of GpH7-A5/GpH7-B3/GpL16-k0,B5
6,193 % of GpH7-A5/GpH7-B3/GpL16-k0,B6
7,235 % of GpH7-A5/GpH7-B3/GpL16-k0,B7
8,110 % of GpH7-A5/GpH7-B3/GpL16-k0,B8
9,116 % of GpH7-A5/GpH7-B3/GpL16-k0,B9
10,199 % of GpH7-A5/GpH7-B3/GpL16-k0,B10
11,143 % of GpH7-A5/GpH7-B3/GpL16-k0,B11
12,111 % of GpH7-A5/GpH7-B3/GpL16-k0,B12
13,111 % of GpH7-A5/GpH7-B3/GpL16-k0,B13
14,116 % of GpH7-A5/GpH7-B3/GpL16-k0,B14
15,100 % of GpH7-A5/GpH7-B3/GpL16-k0,B15
16,160 % of GpH7-A5/GpH7-B3/GpL16-k0,B16
17,177 % of GpH7-A5/GpH7-B3/GpL16-k0,B17
18,172 % of GpH7-A5/GpH7-B3/GpL16-k0,B18
19,124 % of GpH7-A5/GpH7-B3/GpL16-k0,B19
20,103 % of GpH7-A5/GpH7-B3/GpL16-k0,B20
21,149 % of GpH7-A5/GpH7-B3/GpL16-k0,B21
22,197 % of GpH7-A5/GpH7-B3/GpL16-k0,B22
